Assay results from paper PMC7425986 (PLoS Pathogens, 2020).

T1: gB-p17 (Human cytomegalovirus, strain AD169)
T1 chain: HRANETIYNTTLKYG

T2: gB 15-mer library peptide, residues 69-83 (Human cytomegalovirus, strain AD169)
T2 construct: source: synthetic peptide, bought: JPT Peptide Technologies
T2 chain: ETIYNTTLKYGDVVG

T3: gB P_(064-083) (Human cytomegalovirus, strain AD169)
T3 construct: source: synthetic peptide
T3 chain: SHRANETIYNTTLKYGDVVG

T4: biotinylated full-length peptide, residues 59–88 of gB (Human cytomegalovirus AD169, UniProt P06473)
T4 construct: also called full-length peptide (white column); source: synthetic peptide, bought: JPT Peptide Technologies
T4 chain: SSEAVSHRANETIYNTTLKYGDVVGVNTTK

B1: 3–25 IgG (antibody, V domains shown)
VH: QVQLVESGGGVVQPGRSLRLSCAASGFTFSNHGLHWVRQPPGKGLEWVAVVSKDGTNEHYADSVRGRFTISRDNSKNTLYLLMKSLRLEDTAVYYCAREGYCGDDRCYSGQPDYWGQGILVTVSS
VL: EIVLTQFPATLSLSPGERATLSCRASQSVGRYLAWYQQKPGQAPRLLIYDSSNRATGVPARFSGSGSGTDFTLSISSLEPEDFAVYFCQQRSHWPPLTFGGGTKVEIK
B2: 3–25 Fab (Fab, V domains shown)
VH: B1 VH
VL: B1 VL

Assays:
gB-p17 [1] = biological target: T1, gB-p17; experiment: ELISA; conditions: both partners purified
[2] = biological target: T2, gB 15-mer library peptide, residues …; experiment: ELISA; conditions: both partners purified
gB P_(064-083) = biological target: T3, gB P_(064-083); experiment: ELISA; conditions: both partners purified
[3] = biological target: T4, biotinylated full-length peptide, …; experiment: ELISA; conditions: both partners purified
gB on HCMV whole virion = gB on HCMV whole virion (Human cytomegalovirus, virion strain …, UniProt P06473); experiment: ELISA; inactivated virion (2 μg/mL) coated; 2-fold serially diluted IgG, Fab or (Fab)2, 90 min RT; HRP goat anti-human (Fab)2; conditions: one partner purified
gB-p17 [4] = biological target: T1, gB-p17; experiment: crystal structure; conditions: both partners purified

gB on HCMV whole virion, sequence (P06473 32-906): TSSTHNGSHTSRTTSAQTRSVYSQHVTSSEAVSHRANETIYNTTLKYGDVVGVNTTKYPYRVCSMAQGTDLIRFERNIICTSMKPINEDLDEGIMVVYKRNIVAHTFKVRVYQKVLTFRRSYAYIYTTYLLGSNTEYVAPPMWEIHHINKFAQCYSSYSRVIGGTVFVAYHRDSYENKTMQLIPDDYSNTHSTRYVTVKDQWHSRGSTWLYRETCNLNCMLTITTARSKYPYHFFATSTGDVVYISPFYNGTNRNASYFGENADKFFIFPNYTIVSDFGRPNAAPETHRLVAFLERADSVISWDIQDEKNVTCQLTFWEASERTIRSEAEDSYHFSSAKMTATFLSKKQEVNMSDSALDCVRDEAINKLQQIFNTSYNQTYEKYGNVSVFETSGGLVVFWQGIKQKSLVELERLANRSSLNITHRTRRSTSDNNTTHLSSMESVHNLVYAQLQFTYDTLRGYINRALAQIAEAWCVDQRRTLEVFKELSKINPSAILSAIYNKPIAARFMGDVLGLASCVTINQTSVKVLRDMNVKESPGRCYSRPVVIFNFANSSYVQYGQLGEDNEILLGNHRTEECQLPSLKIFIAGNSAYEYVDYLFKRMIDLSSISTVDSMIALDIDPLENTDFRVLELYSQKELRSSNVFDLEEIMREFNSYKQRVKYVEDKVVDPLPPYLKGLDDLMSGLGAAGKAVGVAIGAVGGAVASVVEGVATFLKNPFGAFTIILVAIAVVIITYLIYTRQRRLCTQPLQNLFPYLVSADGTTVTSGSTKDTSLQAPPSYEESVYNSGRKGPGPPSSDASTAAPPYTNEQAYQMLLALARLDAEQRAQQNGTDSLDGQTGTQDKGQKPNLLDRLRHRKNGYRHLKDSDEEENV

Binder | binding result (gB-p17 [1]) | binding result [2] | binding result (gB P_(064-083)) | binding result [3] | EC50 (gB on HCMV whole virion) | binding result (gB-p17 [4])
B1 | binds | binds | binds | binds | 18.9 nM | 
B2 |  |  |  |  | 66.9 nM | binds
